According to patent publication US20090022714A1, “Combination methods of inhibiting tumor growth with a vascular endothelial growth factor receptor antagonist” (ImClone Systems, Inc., priority 2001, published 2009):

B1: D2H2: human anti-KDR (VEGFR-2) VEGF-blocking Fab clone (antibody, V domains shown)
VH: EVQLVQSGGGLVKPGGSLRLSCAASGFTFSSYSMNWVRQAPGKGLEWVSSISSSSSYIYYADSVKGRFTISRDNAKDSLYLQMNSLRAEDTAVYYCARVTDAFDIWGQGTMVTVSS
VL: DIQLTQSPSSVSASVGDRVTITCRASQGISSRLAWYQQKPGKAPKLLIYAASSLQTGVPSRFSGSGSGTDFTLTISSLQPEDFATYYCQQANRFPPTFGPGTKVDIK
B2: c-p1C11: chimeric p1C11 IgG1: p1C11 variable domains with human κ and γ1 constant regions (antibody, V domains shown)
VH: QVKLQQSGAELVGSGASVKLSCTTSGFNIKDFYMHWVKQRPEQGLEWIGWIDPENGDSDYAPKFQGKATMTADSSSNTAYLQLSSLTSEDTAVYYCNAYYGDYEGYWGQGTTVTVSS
VL: DIELTQSPAIMSASPGEKVTITCSASSSVSYMHWFQQKPGTSPKLWIYSTSNLASGVPARFSGSGSGTSYSLTISRMEAEDAATYYCQQRSSYPFTFGSGTKLEIK

Columns and labels:
KDR (VEGFR-2) [1] = target: T1, KDR (VEGFR-2) (Homo sapiens, UniProt P35968); experiment: Direct binding assay of Fab to KDR; design: the cDNA for KDR (VEGFR-2) extracellular domain is fused in-frame with the cDNA for human placental AP; made in house; host or cells: stably transfected NIH 3T3 cells, purified from supernatant on anti-AP antibody
Procedure: In a direct binding assay, various amounts of soluble Fab proteins were added to KDR (VEGFR-2)-coated 96-well Maxi-sorp microtiter plates and incubated at RT for 1 h, after which the plates were washed 3 times with PBST. The plates were then incubated at RT for 1 h with 100 Φl of a rabbit anti-human Fab antibody-HRP conjugate (Jackson ImmunoResearch Laboratory Inc., West Grove, Pa.). The plates were washed and developed following the procedure described above for the phage ELISA. […] Absorbance at 405 nm was measured to quantify the bound KDR (VEGFR-2)-AP molecules (8).
Target sequence in this assay (P35968 20-764 limits assumed): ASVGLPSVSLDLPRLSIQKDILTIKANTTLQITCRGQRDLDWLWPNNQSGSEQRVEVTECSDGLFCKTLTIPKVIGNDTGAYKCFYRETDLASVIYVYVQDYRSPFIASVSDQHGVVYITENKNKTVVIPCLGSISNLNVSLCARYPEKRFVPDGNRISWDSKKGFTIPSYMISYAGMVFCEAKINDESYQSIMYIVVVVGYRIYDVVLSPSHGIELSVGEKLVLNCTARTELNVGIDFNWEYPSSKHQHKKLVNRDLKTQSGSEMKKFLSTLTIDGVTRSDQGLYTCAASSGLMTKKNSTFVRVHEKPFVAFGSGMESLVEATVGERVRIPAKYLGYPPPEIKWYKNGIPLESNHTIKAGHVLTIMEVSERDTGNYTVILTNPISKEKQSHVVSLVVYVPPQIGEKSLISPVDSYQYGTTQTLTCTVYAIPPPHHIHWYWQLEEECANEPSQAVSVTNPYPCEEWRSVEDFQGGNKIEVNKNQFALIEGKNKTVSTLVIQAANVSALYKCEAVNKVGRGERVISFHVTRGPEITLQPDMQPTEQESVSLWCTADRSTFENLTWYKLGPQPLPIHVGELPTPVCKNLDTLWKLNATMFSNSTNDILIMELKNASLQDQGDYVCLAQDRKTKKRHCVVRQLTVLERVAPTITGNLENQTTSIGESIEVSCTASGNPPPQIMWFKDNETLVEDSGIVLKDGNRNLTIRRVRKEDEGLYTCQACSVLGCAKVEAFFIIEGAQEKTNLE

[2] = test system: KDR (VEGFR-2), KDR (VEGFR-2)(1-3), KDR (VEGFR-2)(3); experiment: Binding epitope mapping with KDR Ig-domain deletion variants; design: species or system human
Procedure: The production of KDR (VEGFR-2) extracellular Ig-like domain deletion variants has been previously described (Lu et al. (2000)). In an epitope-mapping assay, full length KDR (VEGFR-2)-AP, Ap fusions of two KDR (VEGFR-2) Ig-domain deletion variants, and Flk-1-AP were first immobilized onto a 96-well plate (Nunc) using a rabbit anti-AP antibody (DAKO-immunoglobulins, Glostrup, Denmark) as the capture reagent. The plate was then incubated with various anti-KDR (VEGFR-2) Fab proteins at RT for 1 h, followed by incubation with a rabbit anti-human Fab antibody-HRP conjugate. The plate was washed and developed as described above.

KDR (VEGFR-2) [3] = target: T1, KDR (VEGFR-2); experiment: BIAcore analysis of soluble Fab; format: binding; design: the cDNA for KDR (VEGFR-2) extracellular domain is fused in-frame with the cDNA for human placental AP; made in house; host or cells: stably transfected NIH 3T3 cells, purified from supernatant on anti-AP antibody; conditions: mean±SE
Procedure: The binding kinetics of soluble Fab proteins to KDR (VEGFR-2) were measured by surface plasmon resonance using a BIAcore biosensor (Pharmacia Biosensor). KDR (VEGFR-2)-AP fusion protein was immobilized onto a sensor chip and soluble Fab proteins were injected at concentrations ranging from 1.5 nM to 100 nM. Sensorgrams were obtained at each concentration and were evaluated using a program, BIA Evaluation 2.0, to determine the rate constants kon and koff Kd was calculated from the ratio of rate constants koff/kon.
Target sequence in this assay (P35968 20-764 limits assumed): as above

KDR (VEGFR-2) [4] = target: T1, KDR (VEGFR-2); experiment: BIAcore analysis of p1C11 scFv, c-p1C11 and VEGF; format: binding; design: the cDNA for KDR (VEGFR-2) extracellular domain is fused in-frame with the cDNA for human placental AP; made in house; host or cells: stably transfected NIH 3T3 cells, purified from supernatant on anti-AP antibody; conditions: BIAcore, Table 2
Procedure: The binding kinetics of antibodies to KDR (VEGFR-2) were measured using BIAcore biosensor (Pharmacia Biosensor). […] Sensorgrams were obtained at each concentration and were evaluated using a program, BIA Evaluation 2.0, to determine the rate constants kon and koff. Kd was calculated as the ratio of rate constants koff/kon.
Target sequence in this assay (P35968 20-764 limits assumed): as above

HUVEC = experiment: Anti-mitogenic assay, [3H]-TdR, HUVEC (chimeric IgG and scFv); format: cell-based, human; conditions: FIG. 24
Procedure: The effect of anti-KDR (VEGFR-2) antibodies on VEGF-stimulated mitogenesis of human endothelial cells was determined with a [^3H]-TdR DNA incorporation assay using HUVEC. […] After 18 hours of incubation, 0.25 μCi of [^3H]-TdR was added to each well and incubated for an additional 4 hours. DNA incorporated radioactivity was determined with a scintillation counter. The data shown in FIG. 24 are representative of at least three separate experiments.

KDR (VEGFR-2) [5] = target: T1, KDR (VEGFR-2); experiment: KDR phosphorylation assay in HUVEC (chimeric IgG); format: cell-based; design: endogenous in cells; host or cells: HUVEC, early passage
Procedure: (§1) Subconfluent HUVEC cells were grown in growth factor depleted EBM-2 medium for 24 to 48 h prior to experimentation. […] The cells were then lysed in lysis buffer ([…], 150 mM NaCl, 1% NP-40, 2 mM EDTA, 0.25% sodium deoxycholate, 1 mM PMSF, 1 μg/ml leupeptin, 1 μg/ml pepstatin, 10 μg/ml aprotinin, pH 7.5) and the cell lysate used for both the KDR (VEGFR-2) and MAP kinase phosphorylation assays. The KDR (VEGFR-2) receptor was immunoprecipitated from the cell lysates with Protein A Sepharose beads (Santa Cruz Biotechnology, Inc., CA) coupled to an anti-KDR (VEGFR-2) antibody, Mab 4.13 (ImClone Systems). Proteins were resolved with SDS-PAGE and subjected to Western blot analysis. To detect KDR (VEGFR-2) phosphorylation, blots were probed with an antiphosphotyrosine Mab, PY20 (ICN Biomedicals, Inc. Aurora, Ohio). For the MAP kinase activity assay, cell lysates were resolved with SDS-PAGE followed by Western blot analysis using a phospho-specific MAP kinase antibody (New England BioLabs, Beverly, Mass.). All signals were detected using ECL (Amersham, Arlington Heights, Ill.). In both assays, the blots were reprobed with a polyclonal anti-KDR (VEGFR-2) antibody (ImClone Systems) to assure that equal amount of protein was loaded in each lane of SDS-PAGE gels.
Target sequence in this assay (P35968 20-1356): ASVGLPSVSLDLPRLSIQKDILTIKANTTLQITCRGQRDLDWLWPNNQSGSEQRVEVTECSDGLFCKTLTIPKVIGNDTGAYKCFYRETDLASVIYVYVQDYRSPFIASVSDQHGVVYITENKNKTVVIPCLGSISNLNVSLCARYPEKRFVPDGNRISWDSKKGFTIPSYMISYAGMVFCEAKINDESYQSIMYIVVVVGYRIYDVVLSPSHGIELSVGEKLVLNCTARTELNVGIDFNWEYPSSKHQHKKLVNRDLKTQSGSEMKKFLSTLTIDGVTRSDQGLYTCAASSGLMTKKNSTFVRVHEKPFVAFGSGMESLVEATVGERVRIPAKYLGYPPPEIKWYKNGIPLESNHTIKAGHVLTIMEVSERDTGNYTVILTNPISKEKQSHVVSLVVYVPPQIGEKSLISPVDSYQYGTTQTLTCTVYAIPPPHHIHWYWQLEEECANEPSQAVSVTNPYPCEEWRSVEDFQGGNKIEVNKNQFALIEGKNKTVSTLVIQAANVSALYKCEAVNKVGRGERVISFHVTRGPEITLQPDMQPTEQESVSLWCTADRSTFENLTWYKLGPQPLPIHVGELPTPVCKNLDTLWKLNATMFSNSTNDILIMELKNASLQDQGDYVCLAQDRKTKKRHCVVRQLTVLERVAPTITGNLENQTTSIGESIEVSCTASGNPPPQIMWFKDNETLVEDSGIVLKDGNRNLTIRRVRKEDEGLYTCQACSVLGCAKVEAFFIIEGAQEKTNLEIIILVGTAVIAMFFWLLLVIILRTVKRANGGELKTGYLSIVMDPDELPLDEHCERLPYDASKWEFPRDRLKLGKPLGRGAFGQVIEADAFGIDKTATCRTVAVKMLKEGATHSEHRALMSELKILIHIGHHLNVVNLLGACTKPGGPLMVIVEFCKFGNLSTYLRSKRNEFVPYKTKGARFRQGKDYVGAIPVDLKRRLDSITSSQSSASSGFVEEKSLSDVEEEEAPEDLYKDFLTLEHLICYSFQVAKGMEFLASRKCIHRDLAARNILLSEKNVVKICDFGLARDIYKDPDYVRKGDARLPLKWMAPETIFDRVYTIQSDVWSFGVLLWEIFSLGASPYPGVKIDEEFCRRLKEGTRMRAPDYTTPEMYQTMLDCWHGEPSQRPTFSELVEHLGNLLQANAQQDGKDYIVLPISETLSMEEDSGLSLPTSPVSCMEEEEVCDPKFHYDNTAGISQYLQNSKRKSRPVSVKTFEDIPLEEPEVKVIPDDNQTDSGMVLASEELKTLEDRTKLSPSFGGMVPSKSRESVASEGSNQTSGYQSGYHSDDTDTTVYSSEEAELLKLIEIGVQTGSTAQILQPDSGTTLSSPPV

KDR (VEGFR-2) [6] = target: T1, KDR (VEGFR-2); experiment: Quantitative KDR binding assay (chimeric IgG and scFv); design: the cDNA for KDR (VEGFR-2) extracellular domain is fused in-frame with the cDNA for human placental AP; made in house; host or cells: stably transfected NIH 3T3 cells, purified from supernatant on anti-AP antibody; conditions: ELISA, FIG. 20
Procedure: Various amounts of antibodies were added to KDR (VEGFR-2)-coated 96-well Maxi-sorp microtiter plates (Nunc. Danmark) and incubated at room temperature for 1 h, after which the plates were washed 3 times with PBS containing 0.1% Tween-20. The plates were then incubated at RT for 1 h with 100 ul of mouse anti-E tag antibody-HRP conjugate (Pharmacia Biotech) for the scFv, or rabbit anti-human IgG Fc specific antibody-HRP conjugate (Cappel, Organon Teknika Corp.) for the chimeric IgG. The plates were washed 5 times, TMB peroxidase substrate (KPL, Gaithersburg, Md.) added, and the OD at 450 nm read using a microplate reader (Molecular Device, Sunnyvale, Calif.).
Target sequence in this assay (P35968 20-764 limits assumed): as the sequence (P35968 20-764 limits assumed) above

[7] = target: T2, immobilized KDR (VEGFR-2) receptor (Homo sapiens, UniProt P35968); experiment: Competitive VEGF binding assay, second assay (radiolabeled VEGF165 to immobilized KDR); conditions: FIG. 23
T2 construct: the cDNA for KDR (VEGFR-2) extracellular domain is fused in-frame with the cDNA for human placental AP; human placental alkaline phosphatase (AP), inferred for these assays; made in house; host or cells: NIH 3T3 (inferred: the only KDR protein whose making is described)

p44/p42 MAP kinases = experiment: MAP kinase phosphorylation assay in HUVEC (chimeric IgG); format: cell-based, human
Procedure: as §1

[8] = test system: KDR (VEGFR-2)-expressing HUVEC; experiment: FACS analysis of c-p1C11 on HUVEC; format: binding, human; conditions: 5 μg/ml
Procedure: Early passage HUVEC cells were grown in growth factor-depleted EBM-2 medium overnight to induce the expression of KDR (VEGFR-2). The cells were harvested and washed three times with PBS, incubated with c-p1C11 IgG (5 μg/ml) for 1 h at 4° C., followed by incubation with a FITC labeled rabbit anti-human Fc antibody (Capper, Organon Teknika Corp., West Chester, Pa.) for an additional 60 min. The cells were washed and analyzed by a flow cytometer (Model EPICS®, Coulter Corp., Edison, N.J.).

[9] = target: T3, KDR (VEGFR-2) binding to VEGF (Homo sapiens, UniProt P35968); experiment: Competitive VEGF binding assay, first assay (KDR-AP to immobilized VEGF165); conditions: FIG. 22
T3 construct: the cDNA for KDR (VEGFR-2) extracellular domain is fused in-frame with the cDNA for human placental AP; made in house; host or cells: stably transfected NIH 3T3 cells, purified from supernatant on anti-AP antibody
Procedure: In the first assay, various amounts of antibodies were mixed with a fixed amount of KDR (VEGFR-2)-AP (50 ng) and incubated at room temperature for 1 h.

KDR (VEGFR-2), KDR (VEGFR-2)(1-3), KDR (VEGFR-2)(3), sequence (P35968 224-327 limits assumed): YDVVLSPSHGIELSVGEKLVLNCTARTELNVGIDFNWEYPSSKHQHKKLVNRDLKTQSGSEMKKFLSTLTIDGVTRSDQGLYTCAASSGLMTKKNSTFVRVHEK
T3 sequence (P35968 20-764 limits assumed): as the sequence (P35968 20-764 limits assumed) above
T2 sequence (P35968 20-764 limits assumed): as above

Molecule | efficiency of binding to KDR (KDR (VEGFR-2) [1]) | location of binding epitope(s) [2] | koff (KDR (VEGFR-2) [3]) | kon (KDR (VEGFR-2) [3]) | koff (KDR (VEGFR-2) [4]) | kon (KDR (VEGFR-2) [4]) | inhibitory effect on VEGF-stimulated mitogenesis of HUVEC (HUVEC) | inhibition of VEGF-stimulated phosphorylation (activation) of KDR receptor (KDR (VEGFR-2) [5]; VEGF165 20 ng/ml) | effect of antibody alone on activity of KDR receptor and p44/p42 MAP kinases (KDR (VEGFR-2) [5]; without VEGF) | direct binding to immobilized KDR (KDR (VEGFR-2) [6]) | direct binding to immobilized KDR (KDR (VEGFR-2) [6]; listed as C-p1C11) | competition with 125I labeled VEGF for binding to immobilized KDR [7] | inhibition of FGF-stimulated activation of p44/p42 MAP kinases (p44/p42 MAP kinases; FGF 10 ng/ml, not shown) | inhibition of VEGF-stimulated activation of p44/p42 MAP kinases (p44/p42 MAP kinases; VEGF165 20 ng/ml) | binding to KDR expressed on early passage HUVEC [8] | blocking of KDR binding to immobilized VEGF [9]
B1 | more efficient binders | broader binding epitope(s) within KDR (VEGFR-2) Ig domains 1 to 3 | 4.87 ± 0.18 10^−4 S^−1 | 12.4 ± 2.9 10^4 M^−1S^−1 | – | – | – | – | – | – | – | – | – | – | – | –
B2 | – | – | – | – | 0.52 10^−4 s^−1 | 0.63 10^5 M^−1s^−1 | effectively inhibit mitogenesis of HUVEC stimulated by VEGF | effectively inhibits | Neither c-p1C11, nor C225 alone has any effects | binds more efficiently to immobilized KDR (VEGFR-2) than the parent scFv | bind more efficiently to immobilized KDR (VEGFR-2) receptor than the parent scFv | efficiently compete | does not inhibit | effectively inhibits | binds specifically to KDR (VEGFR-2) expressed on early passage HUVEC | block KDR (VEGFR-2) receptor from binding to immobilized VEGF in a dose-dependent manner
